*1 amine or outer side, *2 acyl side, *3 side chain or, on linkers, in order; H or OH if unused. Side-chain parts run from the residue outwards. The star is where a group is joined. C20 diacid = O=C(O)CCCCCCCCCCCCCCCCCCC(=O)*; C18 diacid = O=C(O)CCCCCCCCCCCCCCCCC(=O)*; C16 diacid = O=C(O)CCCCCCCCCCCCCCC(=O)*; γGlu = O=C(O)[C@H](CCC(=O)[*:2])N[*:1]
T1: human calcitonin receptor (a) (human, UniProt P30988 25-474)
T1 sequence (looked up): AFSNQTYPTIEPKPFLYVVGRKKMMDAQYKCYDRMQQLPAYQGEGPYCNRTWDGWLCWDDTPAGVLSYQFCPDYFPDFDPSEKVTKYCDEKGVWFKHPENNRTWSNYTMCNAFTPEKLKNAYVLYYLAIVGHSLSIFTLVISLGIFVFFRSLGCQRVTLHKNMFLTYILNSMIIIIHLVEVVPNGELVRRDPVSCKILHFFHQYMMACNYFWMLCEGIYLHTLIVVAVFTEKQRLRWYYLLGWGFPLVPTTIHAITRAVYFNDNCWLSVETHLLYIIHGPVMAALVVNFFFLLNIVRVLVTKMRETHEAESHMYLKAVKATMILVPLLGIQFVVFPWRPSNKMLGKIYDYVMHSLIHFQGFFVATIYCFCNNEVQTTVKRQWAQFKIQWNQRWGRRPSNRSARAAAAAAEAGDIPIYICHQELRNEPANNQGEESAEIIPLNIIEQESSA

T2: human amylin-3(a) receptor (human, UniProt P30988 25-474; O60896 24-148)
T2 sequence (looked up) 1: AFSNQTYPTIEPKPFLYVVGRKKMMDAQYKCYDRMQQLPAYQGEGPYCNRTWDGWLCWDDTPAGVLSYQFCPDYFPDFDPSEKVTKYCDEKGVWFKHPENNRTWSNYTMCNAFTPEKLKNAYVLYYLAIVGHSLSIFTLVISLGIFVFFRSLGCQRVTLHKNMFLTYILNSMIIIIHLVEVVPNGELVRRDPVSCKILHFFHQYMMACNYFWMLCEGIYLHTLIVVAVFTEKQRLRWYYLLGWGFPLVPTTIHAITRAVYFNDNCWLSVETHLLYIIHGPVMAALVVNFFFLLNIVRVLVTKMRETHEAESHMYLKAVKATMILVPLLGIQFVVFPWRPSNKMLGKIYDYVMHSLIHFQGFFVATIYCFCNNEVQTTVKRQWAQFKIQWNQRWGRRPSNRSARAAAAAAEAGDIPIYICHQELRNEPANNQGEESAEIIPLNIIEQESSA
T2 sequence (looked up) 2: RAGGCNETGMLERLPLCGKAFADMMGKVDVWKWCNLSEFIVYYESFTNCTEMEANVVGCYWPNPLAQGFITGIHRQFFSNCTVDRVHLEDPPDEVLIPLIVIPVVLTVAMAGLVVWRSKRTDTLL


Experiments:
[1] = molecular target: T1, human calcitonin receptor (a); assay: cell-based or functional assay
[2] = molecular target: T2, human amylin-3(a) receptor; assay: cell-based or functional assay

Row | Binder | hCalcR potency, EC50 (pM); CRE-luciferase reporter in BHK cells [1] | hAmyR3 potency, EC50 (pM); CRE-luciferase reporter in BHK cells [2]
1 | Ac-ASQLSTAQTQRLAEFLHHSSDPFGK([γGlu-C18 diacid])IPSSTDVGPDTP-NH2 (SMILES CC[C@H](C)[C@H](NC(=O)[C@H](CCCCNC(=O)CC[C@H](NC(=O)CCCCCCCCCCCCCCCCC(=O)O)C(=O)O)NC(=O)CNC(=O)[C@H](Cc1ccccc1)NC(=O)[C@@H]1CCCN1C(=O)[C@H](CC(=O)O)NC(=O)[C@H](CO)NC(=O)[C@H](CO)NC(=O)[C@H](Cc1c[nH]cn1)NC(=O)[C@H](Cc1c[nH]cn1)NC(=O)[C@H](CC(C)C)NC(=O)[C@H](Cc1ccccc1)NC(=O)[C@H](CCC(=O)O)NC(=O)[C@H](C)NC(=O)[C@H](CC(C)C)NC(=O)[C@H](CCCNC(=N)N)NC(=O)[C@H](CCC(N)=O)NC(=O)[C@@H](NC(=O)[C@H](CCC(N)=O)NC(=O)[C@H](C)NC(=O)[C@@H](NC(=O)[C@H](CO)NC(=O)[C@H](CC(C)C)NC(=O)[C@H](CCC(N)=O)NC(=O)[C@H](CO)NC(=O)[C@H](C)NC(C)=O)[C@@H](C)O)[C@@H](C)O)C(=O)N1CCC[C@H]1C(=O)N[C@@H](CO)C(=O)N[C@@H](CO)C(=O)N[C@H](C(=O)N[C@@H](CC(=O)O)C(=O)N[C@H](C(=O)NCC(=O)N1CCC[C@H]1C(=O)N[C@@H](CC(=O)O)C(=O)N[C@H](C(=O)N1CCC[C@H]1C(N)=O)[C@@H](C)O)C(C)C)[C@@H](C)O) | 1 pM | 1.5 pM
2 | {C16 diacid-γGlu}-ASHLSTAQTARLAEFLHHSSDNFGPILPPTDVGSNTP-NH2 (SMILES CC[C@H](C)[C@H](NC(=O)[C@@H]1CCCN1C(=O)CNC(=O)[C@H](Cc1ccccc1)NC(=O)[C@H](CC(N)=O)NC(=O)[C@H](CC(=O)O)NC(=O)[C@H](CO)NC(=O)[C@H](CO)NC(=O)[C@H](Cc1c[nH]cn1)NC(=O)[C@H](Cc1c[nH]cn1)NC(=O)[C@H](CC(C)C)NC(=O)[C@H](Cc1ccccc1)NC(=O)[C@H](CCC(=O)O)NC(=O)[C@H](C)NC(=O)[C@H](CC(C)C)NC(=O)[C@H](CCCNC(=N)N)NC(=O)[C@H](C)NC(=O)[C@@H](NC(=O)[C@H](CCC(N)=O)NC(=O)[C@H](C)NC(=O)[C@@H](NC(=O)[C@H](CO)NC(=O)[C@H](CC(C)C)NC(=O)[C@H](Cc1c[nH]cn1)NC(=O)[C@H](CO)NC(=O)[C@H](C)NC(=O)CC[C@H](NC(=O)CCCCCCCCCCCCCCC(=O)O)C(=O)O)[C@@H](C)O)[C@@H](C)O)C(=O)N[C@@H](CC(C)C)C(=O)N1CCC[C@H]1C(=O)N1CCC[C@H]1C(=O)N[C@H](C(=O)N[C@@H](CC(=O)O)C(=O)N[C@H](C(=O)NCC(=O)N[C@@H](CO)C(=O)N[C@@H](CC(N)=O)C(=O)N[C@H](C(=O)N1CCC[C@H]1C(N)=O)[C@@H](C)O)C(C)C)[C@@H](C)O) | 1.5 pM | 1.62 pM
3 | Ac-ASQLSTAQTQRLAEFLHHSSDNFGK([γGlu-C18 diacid])ILPPTDVGSNTP-NH2 (SMILES CC[C@H](C)[C@H](NC(=O)[C@H](CCCCNC(=O)CC[C@H](NC(=O)CCCCCCCCCCCCCCCCC(=O)O)C(=O)O)NC(=O)CNC(=O)[C@H](Cc1ccccc1)NC(=O)[C@H](CC(N)=O)NC(=O)[C@H](CC(=O)O)NC(=O)[C@H](CO)NC(=O)[C@H](CO)NC(=O)[C@H](Cc1c[nH]cn1)NC(=O)[C@H](Cc1c[nH]cn1)NC(=O)[C@H](CC(C)C)NC(=O)[C@H](Cc1ccccc1)NC(=O)[C@H](CCC(=O)O)NC(=O)[C@H](C)NC(=O)[C@H](CC(C)C)NC(=O)[C@H](CCCNC(=N)N)NC(=O)[C@H](CCC(N)=O)NC(=O)[C@@H](NC(=O)[C@H](CCC(N)=O)NC(=O)[C@H](C)NC(=O)[C@@H](NC(=O)[C@H](CO)NC(=O)[C@H](CC(C)C)NC(=O)[C@H](CCC(N)=O)NC(=O)[C@H](CO)NC(=O)[C@H](C)NC(C)=O)[C@@H](C)O)[C@@H](C)O)C(=O)N[C@@H](CC(C)C)C(=O)N1CCC[C@H]1C(=O)N1CCC[C@H]1C(=O)N[C@H](C(=O)N[C@@H](CC(=O)O)C(=O)N[C@H](C(=O)NCC(=O)N[C@@H](CO)C(=O)N[C@@H](CC(N)=O)C(=O)N[C@H](C(=O)N1CCC[C@H]1C(N)=O)[C@@H](C)O)C(C)C)[C@@H](C)O) | 1.19 pM | 1.38 pM

The next lines start with the values.

Row | hCalcR potency, EC50 (pM); CRE-luciferase reporter in BHK cells [1] | hAmyR3 potency, EC50 (pM); CRE-luciferase reporter in BHK cells [2] | Binder
4 | 1.89 pM | 1.64 pM | {C18 diacid-γGlu}-ASHLSTAQTQRLAEFLHHSSDNFGPILPPTDVGSNTP-NH2 (SMILES CC[C@H](C)[C@H](NC(=O)[C@@H]1CCCN1C(=O)CNC(=O)[C@H](Cc1ccccc1)NC(=O)[C@H](CC(N)=O)NC(=O)[C@H](CC(=O)O)NC(=O)[C@H](CO)NC(=O)[C@H](CO)NC(=O)[C@H](Cc1c[nH]cn1)NC(=O)[C@H](Cc1c[nH]cn1)NC(=O)[C@H](CC(C)C)NC(=O)[C@H](Cc1ccccc1)NC(=O)[C@H](CCC(=O)O)NC(=O)[C@H](C)NC(=O)[C@H](CC(C)C)NC(=O)[C@H](CCCNC(=N)N)NC(=O)[C@H](CCC(N)=O)NC(=O)[C@@H](NC(=O)[C@H](CCC(N)=O)NC(=O)[C@H](C)NC(=O)[C@@H](NC(=O)[C@H](CO)NC(=O)[C@H](CC(C)C)NC(=O)[C@H](Cc1c[nH]cn1)NC(=O)[C@H](CO)NC(=O)[C@H](C)NC(=O)CC[C@H](NC(=O)CCCCCCCCCCCCCCCCC(=O)O)C(=O)O)[C@@H](C)O)[C@@H](C)O)C(=O)N[C@@H](CC(C)C)C(=O)N1CCC[C@H]1C(=O)N1CCC[C@H]1C(=O)N[C@H](C(=O)N[C@@H](CC(=O)O)C(=O)N[C@H](C(=O)NCC(=O)N[C@@H](CO)C(=O)N[C@@H](CC(N)=O)C(=O)N[C@H](C(=O)N1CCC[C@H]1C(N)=O)[C@@H](C)O)C(C)C)[C@@H](C)O)
5 | 1.3 pM | 0.9 pM | {C20 diacid-γGlu}-ASHLSTAQTQRLAEFLHHSSDNFGPILPPTDVGSNTP-NH2 (SMILES CC[C@H](C)[C@H](NC(=O)[C@@H]1CCCN1C(=O)CNC(=O)[C@H](Cc1ccccc1)NC(=O)[C@H](CC(N)=O)NC(=O)[C@H](CC(=O)O)NC(=O)[C@H](CO)NC(=O)[C@H](CO)NC(=O)[C@H](Cc1c[nH]cn1)NC(=O)[C@H](Cc1c[nH]cn1)NC(=O)[C@H](CC(C)C)NC(=O)[C@H](Cc1ccccc1)NC(=O)[C@H](CCC(=O)O)NC(=O)[C@H](C)NC(=O)[C@H](CC(C)C)NC(=O)[C@H](CCCNC(=N)N)NC(=O)[C@H](CCC(N)=O)NC(=O)[C@@H](NC(=O)[C@H](CCC(N)=O)NC(=O)[C@H](C)NC(=O)[C@@H](NC(=O)[C@H](CO)NC(=O)[C@H](CC(C)C)NC(=O)[C@H](Cc1c[nH]cn1)NC(=O)[C@H](CO)NC(=O)[C@H](C)NC(=O)CC[C@H](NC(=O)CCCCCCCCCCCCCCCCCCC(=O)O)C(=O)O)[C@@H](C)O)[C@@H](C)O)C(=O)N[C@@H](CC(C)C)C(=O)N1CCC[C@H]1C(=O)N1CCC[C@H]1C(=O)N[C@H](C(=O)N[C@@H](CC(=O)O)C(=O)N[C@H](C(=O)NCC(=O)N[C@@H](CO)C(=O)N[C@@H](CC(N)=O)C(=O)N[C@H](C(=O)N1CCC[C@H]1C(N)=O)[C@@H](C)O)C(C)C)[C@@H](C)O)
6 | 1.15 pM | 1.11 pM | {C18 diacid-γGlu-γGlu}-ASHLSTAQTARLAEFLHHFGPILPPTDVGSETP-NH2 (SMILES CC[C@H](C)[C@H](NC(=O)[C@@H]1CCCN1C(=O)CNC(=O)[C@H](Cc1ccccc1)NC(=O)[C@H](Cc1c[nH]cn1)NC(=O)[C@H](Cc1c[nH]cn1)NC(=O)[C@H](CC(C)C)NC(=O)[C@H](Cc1ccccc1)NC(=O)[C@H](CCC(=O)O)NC(=O)[C@H](C)NC(=O)[C@H](CC(C)C)NC(=O)[C@H](CCCNC(=N)N)NC(=O)[C@H](C)NC(=O)[C@@H](NC(=O)[C@H](CCC(N)=O)NC(=O)[C@H](C)NC(=O)[C@@H](NC(=O)[C@H](CO)NC(=O)[C@H](CC(C)C)NC(=O)[C@H](Cc1c[nH]cn1)NC(=O)[C@H](CO)NC(=O)[C@H](C)NC(=O)CC[C@H](NC(=O)CC[C@H](NC(=O)CCCCCCCCCCCCCCCCC(=O)O)C(=O)O)C(=O)O)[C@@H](C)O)[C@@H](C)O)C(=O)N[C@@H](CC(C)C)C(=O)N1CCC[C@H]1C(=O)N1CCC[C@H]1C(=O)N[C@H](C(=O)N[C@@H](CC(=O)O)C(=O)N[C@H](C(=O)NCC(=O)N[C@@H](CO)C(=O)N[C@@H](CCC(=O)O)C(=O)N[C@H](C(=O)N1CCC[C@H]1C(N)=O)[C@@H](C)O)C(C)C)[C@@H](C)O)

Source: patent US20260209293A1 (Novo Nordisk, published 2026)
